{
  "source": "patent US20240199756A1",
  "about": "(CYTOVIA THERAPEUTICS, published 2024)",
  "key": {"human CD38 protein": {"target": "T1, human CD38 protein (human, UniProt P28907 43-300)", "T1 sequence (looked up)": "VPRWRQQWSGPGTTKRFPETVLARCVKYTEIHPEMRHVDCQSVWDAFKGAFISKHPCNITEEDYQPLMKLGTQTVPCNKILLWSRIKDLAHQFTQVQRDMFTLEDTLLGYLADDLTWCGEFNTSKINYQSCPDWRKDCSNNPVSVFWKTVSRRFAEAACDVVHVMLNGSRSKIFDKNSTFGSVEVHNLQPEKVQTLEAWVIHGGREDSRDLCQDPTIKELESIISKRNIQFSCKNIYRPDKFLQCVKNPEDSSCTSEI", "test": "ELISA, plate coated with human CD38 protein, absorbance at 650 nm", "procedure": "Binding of the humanized antibody to human CD38 was tested. The ELISA plate was coated with 0.1 mg/well of human CD38 protein. 1t antibody (humanized anti-aNKp46 antibody or humanized anti-CD38 antibody) was added at 0.1 mg/well. Secondary antibody was diluted 1:7500. After addition of Streptavidin-HRP and TMB substrate the optical absorbance was measured at 650 nm."}, "[1]": {"target": "T2, human CD38 expressed on multiple myeloma cells (KMS11, MM1.S) (human, UniProt P28907 1-300)", "T2 construct": "whole, on cells; Naturally expressed on KMS11 and MM1.S cell lines; a CD38 knock out MM.1S line served as negative control", "T2 sequence (looked up)": "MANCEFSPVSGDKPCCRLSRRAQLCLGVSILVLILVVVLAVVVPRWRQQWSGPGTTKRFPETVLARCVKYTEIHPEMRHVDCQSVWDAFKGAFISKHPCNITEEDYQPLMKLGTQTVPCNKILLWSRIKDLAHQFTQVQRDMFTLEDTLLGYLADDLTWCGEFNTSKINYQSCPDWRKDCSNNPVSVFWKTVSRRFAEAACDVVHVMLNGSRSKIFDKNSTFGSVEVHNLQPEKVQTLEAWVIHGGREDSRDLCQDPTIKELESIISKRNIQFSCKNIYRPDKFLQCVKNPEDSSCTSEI", "test": "flow cytometry on KMS11 wt cells"}, "[2]": {"target": "T2, human CD38 expressed on multiple …", "test": "flow cytometry on MM.1S wt cells"}},
  "data": [
    {"binder": "humanized anti-CD38 antibody (antibody, V domains shown, also called CD38-IgG1 L234A, L235A; CD38-IgG1 wildtype) VH: QVQLVQSGAEVKKPGASVKVSCKASGYTFTSYWMQWVRQAPGQGLEWMGAIYPGDGDTRYTQKFKGRVTMTRDTSTSTVYMELSSLRSEDTAVYYCARERTTGAPRYFDVWGQGTLVTVSS VL: DIQMTQSPSSLSASVGDRVTITCRASENIYSFLAWYQQKPGKAPKLLIYNTKTLTEGVPSRFSGSGSGTDFTLTISSLQPEDFATYYCQHHYGIPLTFGGGTKVEIK", "values": [
      {"measurement": "binding result", "setting": "human CD38 protein", "result": "binds"}
    ]},
    {"binder": "NKE2 with wild type (WT) Fc (bispecific antibody, human IgG1, kappa, Tetravalent IgG1-like tandem-Fab molecule: anti-CD38 Fab, linker, humanized 09 anti-NKp46 Fab, hinge, IgG1 Fc; also called NKE2 WT; NKE2 WT-Fc) heavy: not shown light 1: DIVMTQSPATLSLSPGERATLSCRASQSISDYLHWFQQKPHESPRLLIKYASQSISGIPARFSGSGSGSDFTLTISSLEPEDFAVYYCQNGHSFPLTFGPGTKVDIKRTVAAPAVFIFPPSDEQLKSGTASVVCLLKNFYPREAKVQWKVDNALQSGNSQESVTEQDSKDSTYSLSSTLTLSKADYEKHKVYACEVTHQGLSSPVTKSFNRGEC light 2: DIQMTQSPSSLSASVGDRVTITCRASENIYSFLAWYQQKPGKAPKLLIYNTKTLTEGVPSRFSGSGSGTDFTLTISSLQPEDFATYYCQHHYGIPLTFGGGTKVEIKRTVAAPSVFIFPPSDEQLKSGTASVVCLLNNFYPREAKVQWKVDNALQSGNSQESVTEQDSKDSTYSLSSTLTLSKADYEKHKVYACEVTHQGLSSPVTKSFNRGEC", "values": [
      {"measurement": "EC50 (read off the curve)", "setting": "[1]", "result": "~0.2", "unit": "µg/mL"},
      {"measurement": "EC50 (read off the curve)", "setting": "[2]", "result": "~0.3", "unit": "µg/mL"}
    ]},
    {"binder": "NKE2 with mutant null Fc (bispecific antibody, human IgG1, kappa, L234A L235A, As NKE2 WT but with IgG1 L234A/L235A Fc; also called NKE2 Mut Fc (Fc silent); NKE2 MUT) heavy: not shown light 1: DIVMTQSPATLSLSPGERATLSCRASQSISDYLHWFQQKPHESPRLLIKYASQSISGIPARFSGSGSGSDFTLTISSLEPEDFAVYYCQNGHSFPLTFGPGTKVDIKRTVAAPAVFIFPPSDEQLKSGTASVVCLLKNFYPREAKVQWKVDNALQSGNSQESVTEQDSKDSTYSLSSTLTLSKADYEKHKVYACEVTHQGLSSPVTKSFNRGEC light 2: DIQMTQSPSSLSASVGDRVTITCRASENIYSFLAWYQQKPGKAPKLLIYNTKTLTEGVPSRFSGSGSGTDFTLTISSLQPEDFATYYCQHHYGIPLTFGGGTKVEIKRTVAAPSVFIFPPSDEQLKSGTASVVCLLNNFYPREAKVQWKVDNALQSGNSQESVTEQDSKDSTYSLSSTLTLSKADYEKHKVYACEVTHQGLSSPVTKSFNRGEC", "values": [
      {"measurement": "EC50 (read off the curve)", "setting": "[1]", "result": "~0.2", "unit": "µg/mL"},
      {"measurement": "EC50 (read off the curve)", "setting": "[2]", "result": "~0.3", "unit": "µg/mL"}
    ]}
  ]
}
